# Assay results published in paper PMC8096265, “A functional LSD1 coregulator screen reveals a novel transcriptional regulatory cascade connecting R-loop homeostasis with epigenetic regulation” (Nucleic Acids Research, 2021).
# Legend:
# RNA:DNA hybrid = assay: RNA:DNA unwinding assay; type: biochemical; settings: 4.79 μM recombinant DDX19A, 1 nM Cy-5-labeled RNA:DNA hybrid, 4 mM ATP, 30°C, 60 min, pH 7.5
# Experimental: RNA:DNA unwinding assay was performed as described ([54]). In brief: RNA:DNA hybrids were annealed in vitro in 5 mM Tris/HCl pH 8.5. The sequence of the top RNA strand was: 5′‐[…]‐3′, and the sequence of the bottom DNA strand was 5′-[…]‐3′. The annealed RNA:DNA hybrid has a 5′ ssDNA overhang and is labeled with Cy-5. Unwinding experiments were carried out at 30°C for 60 min in 30 mM Tris–HCl (pH 7.5), 50 mM NaCl, 5 mM MgCl2, 2 mM DTT, 0.01% NP‐40, 0.1 mg/ml BSA, 4 mM ATP, 1 nM Cy-5‐labeled RNA:DNA hybrid substrate, in the presence of 4.79 μM recombinant DDX19A. The reaction was stopped by the addition of SDS to a final concentration of 0.5% and 20 ng proteinase K (20 mg/ml). The reaction was afterward loaded onto a 10% non-denaturing polyacrylamide gel and analysed using a FusionFX detection system (VILBER).
# [1] = tested on: R-loops from NIH/3T3 cell lysate; assay: S9.6 antibody IP, co-precipitation of LSD1 and DDX19A; type: cell-based, murine; settings: NIH/3T3 whole cell lysate, Western blot
# Experimental: 100 μl Dynabeads® Protein G were pre-blocked with 0.5% BSA/PBS for 2 h at 4°C. 10 × 10^6 non-crosslinked NIH/3T3 cells were harvested, washed once in 1× PBS and lysed in 1 ml Cell Lysis Buffer (85 mM KCl, 5 mM HEPES pH 8, 0.5% NP-40, cOmplete™ EDTA-free PIC) for 15 min on ice. Nuclei were collected by spinning 1 min at 15 000 × g, 4°C. The pellet was resuspended in 750 μl RSB buffer (10 mM Tris–HCl pH 7.5, 200 mM NaCl, 2.5 mM MgCl2, cOmplete™ EDTA-free PIC) supplemented with 0.2% sodium-deoxycholate, 0.1% SDS, 0.05% sodium-lauroyl-sarcosinate and 0.5% Triton X-100. Cells were sonicated for 4 min in an EpiShear Probe Sonicator (20 s pulse, 30 s pause, 40%). After taking 5% as input, samples were transferred to a 15 ml falcon tube and diluted 1:4 by addition of 2.3 ml RSB with 0.5% Triton X-100 (RSB+T). The samples were subjected to pre-clearing with 5 μg mouse IgG and 35 μl Dynabeads® Protein G for 1 h at 4°C. Magnetic beads were locked and the supernatant was split into three Eppendorf tubes. For the S9.6 antibody-specificity control, 40 U of RNAse H (NEB) were added to one of the tubes and all samples were incubated for 10 min at 37°C before adding the IP antibodies. The samples were subjected to IP with 4 μg of either the S9.6 antibody or mouse IgG and 32 μl pre-blocked beads per sample. 10 ng RNase A was added to each tube before rotating at 4°C for 2.5 h. […]
molecule,measurement,setting,value
"DDX19A: DEAD-box helicase 19A; recombinant GST-tagged for in vitro tests, endogenous in S9.6 IP (protein, UniProt Q9NUU7 2-478, looked up, GST tag, DEAD-box helicase 19A; recombinant GST-tagged for in vitro tests, endogenous in S9.6 IP) ATP-dependent RNA helicase …: ATDSWALAVDEQEAAVKSMTNLQIKEEKVKADTNGIIKTSTTAEKTDEEEKEDRAAQSLLNKLIRSNLVDNTNQVEVLQRDPNSPLYSVKSFEELRLKPQLLQGVYAMGFNRPSKIQENALPMMLAEPPQNLIAQSQSGTGKTAAFVLAMLSRVEPSDRYPQCLCLSPTYELALQTGKVIEQMGKFYPELKLAYAVRGNKLERGQKISEQIVIGTPGTVLDWCSKLKFIDPKKIKVFVLDEADVMIATQGHQDQSIRIQRMLPRNCQMLLFSATFEDSVWKFAQKVVPDPNVIKLKREEETLDTIKQYYVLCSSRDEKFQALCNLYGAITIAQAMIFCHTRKTASWLAAELSKEGHQVALLSGEMMVEQRAAVIERFREGKEKVLVTTNVCARGIDVEQVSVVINFDLPVDKDGNPDNETYLHRIGRTGRFGKRGLAVNMVDSKHSMNILNRIQEHFNKKIERLDTDDLDEIEKIAN",ability to resolve RNA:DNA hybrids in vitro,RNA:DNA hybrid,confirmed its ability to resolve RNA:DNA hybrids in vitro
same,association with R-loops (co-precipitation with S9.6),[1],strong physical association
